In publication PMC11638070:

Target: mitochondrial heat shock protein 60 V72I (mtHsp60^V72I) (human) (UniProt P10809)

steady-state ATPase activity of mtHsp60^V72I (500 nM monomer) against mtHsp10 (twofold series from 10 µM monomer); ~21 pmol ATP per min without mtHsp10: 31 pmol/min
Substance: mtHsp10 (from UniProt P61604 1-102) (natural protein)
